For this experiment, the target named is partially (~50%) activated 3954-1204-c225v5. The experiment can be described thus: sandwich ELISA in human plasma; clone 41 coated as capture, biotinylated detection antibody, streptavidin-HRP, OD 450 nm.

Numbering of substitutions follows the chain as printed.

B1: antibody 58-1 (antibody, V domains shown)
VH: QSVEESGGRLVMPGGSLTLTCTVSGIDLSRYGMAWFRQAPGKGLKYIGAISSSGNEDYASWAIGRFTISKTSTTAELKMTSLTTEDTATYFCGRGWLSNNAYMWGPGTLVTVSS
VL: PVLTQTPTPVSAAVGGTVTINCQASQSIYNKNQLSWFQQKPGQPPKLLIHYASTLASGVSSRFKGSGSGTQFTLTISDVQCDDAATYYCLGDFSCSGVDCLVVGGGTEVVVEG
In turn, B1 yielded a signal relative to the signal for intact 3954-1204-c225v5 of 50 % lower.

B2: antibody 72-3 (antibody, V domains shown)
VH: B1 VH with R30H, K45E, A62P, I63K, A75V, E76T, A101V
VL: B1 VL with P1Q, T8P, P9S, F37L, L47V, V102S
The molecule B2 gave a signal relative to the signal for intact 3954-1204-c225v5 of 50 % lower.
